One test deals with UAP56 (10×His–3C–UAP56) (UniProt Q13838).
Test [1] addresses LENG8–PS^M (10×His–MBP–LENG8^491–800, 3×V5–PCID2, SEM1) (human) (UniProt Q96PV6). Kind of test: grating-coupled interferometry; V5-tagged LENG8–PS^M or SAC3D1–PS^M captured on an amine-coupled anti-V5 antibody (Creoptix WAVE, 4PCP chip); UAP56 injected as a 1:2 dilution series from 5 µM, with or without 200 µM 15U RNA, 25 mM HEPES pH 7.9, 50 mM KCl, 1 mM MgCl2, 1 mM TCEP, with and without 1 mM ATP, 25 °C; one-to-one model.

The target of test [2] is SAC3D1–PS^M (10×His–MBP–SAC3D1^48–404, 3×V5–PCID2, SEM1) (human) (UniProt A6NKF1). The test is described as above.

Chain of UAP56(Δ1–43) (10×His–3C–UAP56(Δ1–43), residues 44–428) (Q13838 44-428, stated change not applied): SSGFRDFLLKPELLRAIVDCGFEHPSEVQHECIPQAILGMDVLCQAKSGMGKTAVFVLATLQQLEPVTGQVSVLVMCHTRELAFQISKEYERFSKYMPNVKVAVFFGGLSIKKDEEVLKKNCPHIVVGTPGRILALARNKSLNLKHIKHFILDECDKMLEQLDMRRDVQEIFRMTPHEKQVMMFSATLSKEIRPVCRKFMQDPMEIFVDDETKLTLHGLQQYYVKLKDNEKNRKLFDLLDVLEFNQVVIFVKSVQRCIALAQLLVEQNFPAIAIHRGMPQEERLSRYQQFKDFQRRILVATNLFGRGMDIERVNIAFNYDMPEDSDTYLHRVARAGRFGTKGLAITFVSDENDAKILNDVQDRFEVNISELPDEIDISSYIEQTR
Chain of UAP56 (10×His–3C–UAP56) (Q13838 whole entry): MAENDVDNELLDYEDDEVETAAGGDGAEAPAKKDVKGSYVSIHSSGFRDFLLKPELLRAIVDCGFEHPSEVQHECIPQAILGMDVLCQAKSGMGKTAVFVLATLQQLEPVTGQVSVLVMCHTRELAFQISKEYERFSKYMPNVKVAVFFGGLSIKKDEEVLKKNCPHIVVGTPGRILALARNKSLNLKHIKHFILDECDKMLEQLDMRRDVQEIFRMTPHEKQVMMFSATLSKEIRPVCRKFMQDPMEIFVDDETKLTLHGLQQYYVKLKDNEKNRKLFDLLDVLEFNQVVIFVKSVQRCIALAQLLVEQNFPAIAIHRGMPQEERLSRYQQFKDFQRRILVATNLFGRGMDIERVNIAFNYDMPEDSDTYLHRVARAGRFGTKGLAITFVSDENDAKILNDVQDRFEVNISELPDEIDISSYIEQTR

“LENG8–PS^M (10×His–MBP–LENG8^491–800, 3×V5–PCID2, SEM1) (from UniProt Q96PV6 491-800; Q5JVF3 1-399; P60896 1-70) (complex)”: in the test with UAP56 (10×His–3C–UAP56), the fold stimulation of the apparent ATPase rate of UAP56 with RNA and ATP (NADH-coupled assay) amounted to 290 fold. Same read-out and setting: the figure for “SAC3D1–PS^M (10×His–MBP–SAC3D1^48–404, 3×V5–PCID2, SEM1) (from UniProt A6NKF1 48-404; Q5JVF3 1-399; P60896 1-70) (complex)” is 60 fold. “UAP56(Δ1–43) (10×His–3C–UAP56(Δ1–43), residues 44–428) (from UniProt Q13838 44-428) (domain or fragment)”: the fold reduction of affinity against UAP56 in test [1] and in test [2] was more than 30 fold throughout.
